[ ]: non-standard residue; d: D form. Phe(3-Me) = Cc1cccc(C[C@H](N)C(=O)O)c1; Phe(4-Me) = Cc1ccc(C[C@H](N)C(=O)O)cc1; Phe(2-Me) = Cc1ccccc1C[C@H](N)C(=O)O; Arg(Me) = CNC(=N)NCCC[C@H](N)C(=O)O; Dap(CONH2) = NC(=O)NC[C@H](N)C(=O)O; Ala(cPr) = N[C@@H](CC1CC1)C(=O)O; Hyp = O=C(O)[C@@H]1C[C@@H](O)CN1; αMeF = C[C@](N)(Cc1ccccc1)C(=O)O; Aad = N[C@@H](CCCC(=O)O)C(=O)O; Cha = N[C@@H](CC1CCCCC1)C(=O)O; Cit = NC(=O)NCCC[C@H](N)C(=O)O; Abu = CC[C@H](N)C(=O)O; Aib = CC(C)(N)C(=O)O
B1: des(1)-Ac-[D-Tyr2,Asp3,Thr5,Cha6,Ala(cPr)8,Arg(Me)9,Trp10]MS10 (peptide)
peptide: Ac-[dY]DNT[Cha]G[Ala(cPr)][Arg(Me)]W-NH2
SMILES: CNC(=N)NCCC[C@H](NC(=O)[C@H](CC1CC1)NC(=O)CNC(=O)[C@H](CC1CCCCC1)NC(=O)[C@@H](NC(=O)[C@H](CC(N)=O)NC(=O)[C@H](CC(=O)O)NC(=O)[C@@H](Cc1ccc(O)cc1)NC(C)=O)[C@@H](C)O)C(=O)N[C@@H](Cc1c[nH]c2ccccc12)C(N)=O
B2: des(1)-Ac-[D-Tyr2,Glu3,Thr5,Cha6,Ala(cPr)8,Arg(Me)9,Trp10]MS10 (peptide)
peptide: Ac-[dY]ENT[Cha]G[Ala(cPr)][Arg(Me)]W-NH2
SMILES: CNC(=N)NCCC[C@H](NC(=O)[C@H](CC1CC1)NC(=O)CNC(=O)[C@H](CC1CCCCC1)NC(=O)[C@@H](NC(=O)[C@H](CC(N)=O)NC(=O)[C@H](CCC(=O)O)NC(=O)[C@@H](Cc1ccc(O)cc1)NC(C)=O)[C@@H](C)O)C(=O)N[C@@H](Cc1c[nH]c2ccccc12)C(N)=O
B3: des(1)-Ac-[D-Tyr2,Hyp3,Thr5,Phe(3Me)6,Arg(Me)9,Trp10]MS10 (peptide)
peptide: Ac-[dY][Hyp]NT[Phe(3-Me)]GL[Arg(Me)]W-NH2
B4: des(1)-Ac-[D-Tyr2,Hyp3,Thr5,αMePhe6,Arg(Me)9,Trp10]MS10 (peptide)
peptide: Ac-[dY][Hyp]NT[αMeF]GL[Arg(Me)]W-NH2
SMILES: CNC(=N)NCCC[C@H](NC(=O)[C@H](CC(C)C)NC(=O)CNC(=O)[C@](C)(Cc1ccccc1)NC(=O)[C@@H](NC(=O)[C@H](CC(N)=O)NC(=O)[C@@H]1C[C@@H](O)CN1C(=O)[C@@H](Cc1ccc(O)cc1)NC(C)=O)[C@@H](C)O)C(=O)N[C@@H](Cc1c[nH]c2ccccc12)C(N)=O
B5: des(1)-Ac-[D-Tyr2,Lys3,Thr5,Cha6,Ala(cPr)8,Arg(Me)9,Trp10]MS10 (peptide)
peptide: Ac-[dY]KNT[Cha]G[Ala(cPr)][Arg(Me)]W-NH2
modifications: not fully specified; printed as Ac-D-Tyr-Lys-Asn-Thr-Cha-Gly-Ala(cPr)-Arg(Me)-Trp-NH2
B6: des(1)-Ac-[D-Tyr2,Hyp3,Thr5,Ala7,Arg(Me)9,Trp10]MS10 (peptide)
peptide: Ac-[dY][Hyp]NTFAL[Arg(Me)]W-NH2
B7: des(1)-Ac-[D-Tyr2,Glu3,Alb4,Thr5,Gly7Ψ((E)CH═CH)Leu8,Arg(Me)9,Trp10]MS10 (peptide)
peptide: Ac-[dY]E[Dap(CONH2)]TFGL[Arg(Me)]W-NH2
modifications: also: Gly7-Leu8 amide bond replaced by (E)-CH═CH-
B8: des(1)-Ac-[D-Tyr2,Hyp3,Thr5,Cha6,8,Arg(Me)9,Trp10]MS10 (peptide)
peptide: Ac-[dY][Hyp]NT[Cha]G[Cha][Arg(Me)]W-NH2
B9: des(1)-Ac-[D-Tyr2,Hyp3,Thr5,Abu7,Arg(Me)9,Trp10]MS10 (peptide)
peptide: Ac-[dY][Hyp]NTF[Abu]L[Arg(Me)]W-NH2
B10: des(1)-Ac-[D-Tyr2,Hyp3,Thr5,Gly7Ψ(CH2CH2)Leu8,Arg(Me)9,Trp10]MS10 (peptide)
peptide: Ac-[dY][Hyp]NTFGL[Arg(Me)]W-NH2
modifications: also: Gly6-Leu7 amide replaced by CH2CH2
B11: des(1)-Ac-[D-Tyr2,Hyp3,Gln4,Thr5,Cha6,Gly7Ψ((E)CH═CH)Leu8,Arg(Me)9,Trp10]MS10 (peptide)
peptide: Ac-[dY][Hyp]QT[Cha]GL[Arg(Me)]W-NH2
modifications: also: Gly7Ψ((E)CH═CH)Leu8: amide between Gly and Leu replaced by (E) alkene
B12: des(1)-Ac-[D-Tyr2,Glu3,Alb4,Thr5,Cha6,Gly7Ψ((E)CH═CH)Leu8,Arg(Me)9,Trp10]MS10 (peptide)
peptide: Ac-[dY]E[Dap(CONH2)]T[Cha]GL[Arg(Me)]W-NH2
modifications: also: Gly7-Leu8 amide bond replaced by (E)-CH═CH-
B13: des(1)-Ac-[D-Tyr2,Hyp3,Alb4,Thr5,Arg(Me)9,Trp10]MS10 (peptide)
peptide: Ac-[dY][Hyp][Dap(CONH2)]TFGL[Arg(Me)]W-NH2
SMILES: CNC(=N)NCCC[C@H](NC(=O)[C@H](CC(C)C)NC(=O)CNC(=O)[C@H](Cc1ccccc1)NC(=O)[C@@H](NC(=O)[C@H](CNC(N)=O)NC(=O)[C@@H]1C[C@@H](O)CN1C(=O)[C@@H](Cc1ccc(O)cc1)NC(C)=O)[C@@H](C)O)C(=O)N[C@@H](Cc1c[nH]c2ccccc12)C(N)=O
B14: des(1)-Ac-[D-Tyr2,Hyp3,Thr5,Phe(4Me)6,Arg(Me)9,Trp10]MS10 (peptide)
peptide: Ac-[dY][Hyp]NT[Phe(4-Me)]GL[Arg(Me)]W-NH2
B15: des(1)-Ac-[D-Tyr2,Aad3,Thr5,Cha6,Ala(cPr)8,Arg(Me)9,Trp10]MS10 (peptide)
peptide: Ac-[dY][Aad]NT[Cha]G[Ala(cPr)][Arg(Me)]W-NH2
SMILES: CNC(=N)NCCC[C@H](NC(=O)[C@H](CC1CC1)NC(=O)CNC(=O)[C@H](CC1CCCCC1)NC(=O)[C@@H](NC(=O)[C@H](CC(N)=O)NC(=O)[C@H](CCCC(=O)O)NC(=O)[C@@H](Cc1ccc(O)cc1)NC(C)=O)[C@@H](C)O)C(=O)N[C@@H](Cc1c[nH]c2ccccc12)C(N)=O
B16: des(1)-Ac-[D-Tyr2,Hyp3,Thr5,Ala(cPr)8,Arg(Me)9,Trp10]MS10 (peptide)
peptide: Ac-[dY][Hyp]NTFG[Ala(cPr)][Arg(Me)]W-NH2
B17: des(1)-Ac-[D-Tyr2,Hyp3,Thr5,Phe6Ψ((R)CHOH-CH2)Gly7,Arg(Me)9,Trp10]MS10 (peptide)
peptide: Ac-[dY][Hyp]NTFGL[Arg(Me)]W-NH2
modifications: also: Phe5-Gly6 amide replaced by (R)CHOH-CH2
B18: des(1)-Ac-[D-Tyr2,Hyp3,Thr5,Phe(2Me)6,Arg(Me)9,Trp10]MS10 (peptide)
peptide: Ac-[dY][Hyp]NT[Phe(2-Me)]GL[Arg(Me)]W-NH2
B19: des(1)-Ac-[D-Tyr2,Hyp3,Thr5,Cha6,Gly7Ψ((E)CH═CH)Leu8,Arg(Me)9,Trp10]MS10 (peptide)
peptide: Ac-[dY][Hyp]NT[Cha]GL[Arg(Me)]W-NH2
modifications: also: Gly6-Leu7 amide replaced by (E)CH=CH
B20: des(1)-Ac-[D-Tyr2,Hyp3,Thr5,Gly7Ψ((E)CH═CH)Leu8,Arg(Me)9,Trp10]MS10 (peptide)
peptide: Ac-[dY][Hyp]NTFGL[Arg(Me)]W-NH2
modifications: also: Gly6-Leu7 amide replaced by (E)CH=CH
B21: des(1)-Ac-[D-Tyr2,Hyp3,Cit4,Thr5,Cha6,Gly7Ψ((E)CH═CH)Leu8,Arg(Me)9,Trp10]MS10 (peptide)
peptide: Ac-[dY][Hyp][Cit]T[Cha]GL[Arg(Me)]W-NH2
modifications: also: Gly7Ψ((E)CH═CH)Leu8: amide between Gly and Leu replaced by (E) alkene
B22: des(1)-Ac-[D-Tyr2,Hyp3,Thr5,Ser7,Arg(Me)9,Trp10]MS10 (peptide)
peptide: Ac-[dY][Hyp]NTFSL[Arg(Me)]W-NH2
SMILES: CNC(=N)NCCC[C@H](NC(=O)[C@H](CC(C)C)NC(=O)[C@H](CO)NC(=O)[C@H](Cc1ccccc1)NC(=O)[C@@H](NC(=O)[C@H](CC(N)=O)NC(=O)[C@@H]1C[C@@H](O)CN1C(=O)[C@@H](Cc1ccc(O)cc1)NC(C)=O)[C@@H](C)O)C(=O)N[C@@H](Cc1c[nH]c2ccccc12)C(N)=O
B23: des(1)-Ac-[D-Tyr2,Aib3,Thr5,Cha6,Ala(cPr)8,Arg(Me)9,Trp10]MS10 (peptide)
peptide: Ac-[dY][Aib]NT[Cha]G[Ala(cPr)][Arg(Me)]W-NH2
SMILES: CNC(=N)NCCC[C@H](NC(=O)[C@H](CC1CC1)NC(=O)CNC(=O)[C@H](CC1CCCCC1)NC(=O)[C@@H](NC(=O)[C@H](CC(N)=O)NC(=O)C(C)(C)NC(=O)[C@@H](Cc1ccc(O)cc1)NC(C)=O)[C@@H](C)O)C(=O)N[C@@H](Cc1c[nH]c2ccccc12)C(N)=O
B24: des(1)-Ac-[D-Tyr2,Glu3,Thr5,Gly7Ψ((E)CH═CH)Leu8,Arg(Me)9,Trp10]MS10 (peptide)
peptide: Ac-[dY]ENTFGL[Arg(Me)]W-NH2
modifications: also: Gly7-Leu8 amide bond replaced by (E)-CH═CH-
B25: des(1)-Ac-[D-Tyr2,Hyp3,Glu4,Thr5,Cha6,Gly7Ψ((E)CH═CH)Leu8,Arg(Me)9,Trp10]MS10 (peptide)
peptide: Ac-[dY][Hyp]ET[Cha]GL[Arg(Me)]W-NH2
modifications: also: Gly7Ψ((E)CH═CH)Leu8: amide between Gly and Leu replaced by (E) alkene
B26: des(1)-Ac-[D-Tyr2,Hyp3,Alb4,Thr5,Cha6,Gly7Ψ((E)CH═CH)Leu8,Arg(Me)9,Trp10]MS10 (peptide)
peptide: Ac-[dY][Hyp][Dap(CONH2)]T[Cha]GL[Arg(Me)]W-NH2
modifications: also: Gly7-Leu8 amide bond replaced by (E)-CH═CH-
B27: des(1)-Ac-[D-Tyr2,Glu3,Thr5,Cha6,Gly7Ψ((E)CH═CH)Leu8,Arg(Me)9,Trp10]MS10 (peptide)
peptide: Ac-[dY]ENT[Cha]GL[Arg(Me)]W-NH2
modifications: also: Gly7-Leu8 amide bond replaced by (E)-CH═CH-
B28: des(1)-Ac-[D-Tyr2,Hyp3,Alb4,Thr5,Gly7Ψ((E)CH═CH)Leu8,Arg(Me)9,Trp10]MS10 (peptide)
peptide: Ac-[dY][Hyp][Dap(CONH2)]TFGL[Arg(Me)]W-NH2
modifications: also: Gly7Ψ((E)CH═CH)Leu8: amide between Gly and Leu replaced by (E) alkene
B29: des(1)-Ac-[D-Tyr2,Hyp3,Thr5,Cha6,Ala(cPr)8,Arg(Me)9,Trp10]MS10 (peptide)
peptide: Ac-[dY][Hyp]NT[Cha]G[Ala(cPr)][Arg(Me)]W-NH2

target: human OT7T175 (metastin receptor) (human) (UniProt Q969F8); assay: cell-based or functional assay
Chain of UniProt Q969F8 (Q969F8 whole entry L364H): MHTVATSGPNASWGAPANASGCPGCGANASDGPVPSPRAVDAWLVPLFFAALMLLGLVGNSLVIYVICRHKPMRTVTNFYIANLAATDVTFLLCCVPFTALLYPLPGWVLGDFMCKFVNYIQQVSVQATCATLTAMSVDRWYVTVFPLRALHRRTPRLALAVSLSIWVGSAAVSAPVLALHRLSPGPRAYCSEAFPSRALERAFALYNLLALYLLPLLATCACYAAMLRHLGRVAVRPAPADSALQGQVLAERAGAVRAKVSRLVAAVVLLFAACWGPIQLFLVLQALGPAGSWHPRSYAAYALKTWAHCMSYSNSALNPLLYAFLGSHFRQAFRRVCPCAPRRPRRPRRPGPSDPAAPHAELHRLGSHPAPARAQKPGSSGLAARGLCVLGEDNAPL

| Specific Activity (EC50 of test compound based on EC50 of Metastin (45-54); intracellular calcium, FLIPR) (ratio to EC50 of Metastin (45-54)) | Binder |
| --- | --- |
| 2.5 | B1 |
| 0.4 | B2 |
| 0.8 | B3 |
| 3.8 | B4 |
| 0.7 | B5 |
| 0.5 | B6 |
| 0.5 | B7 |
| 3.5 | B8 |
| 1 | B9 |
| 0.8 | B10 |
| 1.4 | B11 |
| 0.5 | B12 |
| 0.5 | B13 |
| 0.9 | B14 |
| 1.1 | B15 |
| 0.8 | B16 |
| 0.8 | B17 |
| 0.7 | B18 |
| 0.6 | B19 |
| 0.6 | B20 |
| 0.9 | B21 |
| 0.6 | B22 |
| 0.6 | B23 |
| 0.6 | B24 |
| 4.6 | B25 |
| 0.4 | B26 |
| 0.5 | B27 |
| 0.6 | B28 |
| 0.5 | B29 |
